Data on one molecule can be found in patent publication US6858382 (GENERAL HOSPITAL, dated 2005).

The assay has as its target T1, TetR-RasV12A186 (bacterial transposon Tn10, UniProt P04483 1-207; P01112 1-189).
T1 construct: Yeast two-hybrid bait
In words: yeast two-bait interaction trap, TetOp-URA3 reporter (growth without uracil).

T1 sequence (P04483 1-207, tags or fused parts left off): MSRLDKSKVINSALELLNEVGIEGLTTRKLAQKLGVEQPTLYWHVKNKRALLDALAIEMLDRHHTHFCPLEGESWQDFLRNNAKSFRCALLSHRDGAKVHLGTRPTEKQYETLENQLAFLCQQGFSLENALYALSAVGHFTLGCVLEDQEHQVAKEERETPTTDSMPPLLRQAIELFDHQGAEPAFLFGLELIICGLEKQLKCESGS
Protocol: The LexA and TetR fusion bait proteins were expressed in a yeast cell that also contained an integrated TetOp-URA3 reporter and an episomal LexAOp-lacZ reporter. Expression of baits in these "two-bait" cells was under the control of the ADH1 promoter. The TetOp-URA3 reporter was integrated into the LYS2 gene. The LexAOp-lacZ reporter, a derivative of pSH18–34, was carried on pCXW24, a 2 μm plasmid with a LYS2 marker.

B1: B42-Mxi1 (other, UniProt P50539 1-228, looked up, not shown: large carriers)
chain: MERVKMINVQRLLEAAEFLERRERECEHGYASSFPSMPSPRLQHSKPPRRLSRAQKHSSGSSNTSTANRSTHNELEKNRRAHLRLCLERLKVLIPLGPDCTRHTTLGLLNKAKAHIKKLEEAERKSQHQLENLEREQRFLKWRLEQLQGPQEMERIRMDSIGSTISSDRSDSEREEIEVDVESTEFSHGEVDNISTTSISDIDDHSSLPSIGSDEGYSSASVKLSFTS
notes: Yeast two-hybrid prey, used as a positive control with Max
Regarding B1, the binding result is “no binding”.
